# Data from paper PMC4835091.
# T1: ZapD (purified), P36680
# T1 chain: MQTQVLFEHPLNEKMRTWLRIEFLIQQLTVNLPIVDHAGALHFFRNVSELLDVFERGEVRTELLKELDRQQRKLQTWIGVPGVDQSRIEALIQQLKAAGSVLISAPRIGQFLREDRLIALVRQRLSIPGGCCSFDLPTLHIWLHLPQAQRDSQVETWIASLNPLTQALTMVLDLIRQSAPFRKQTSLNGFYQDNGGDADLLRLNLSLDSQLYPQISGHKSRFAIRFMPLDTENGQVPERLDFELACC
# T2: FtsZ(NRNKRG) (purified), P0A9A6
# T2 chain: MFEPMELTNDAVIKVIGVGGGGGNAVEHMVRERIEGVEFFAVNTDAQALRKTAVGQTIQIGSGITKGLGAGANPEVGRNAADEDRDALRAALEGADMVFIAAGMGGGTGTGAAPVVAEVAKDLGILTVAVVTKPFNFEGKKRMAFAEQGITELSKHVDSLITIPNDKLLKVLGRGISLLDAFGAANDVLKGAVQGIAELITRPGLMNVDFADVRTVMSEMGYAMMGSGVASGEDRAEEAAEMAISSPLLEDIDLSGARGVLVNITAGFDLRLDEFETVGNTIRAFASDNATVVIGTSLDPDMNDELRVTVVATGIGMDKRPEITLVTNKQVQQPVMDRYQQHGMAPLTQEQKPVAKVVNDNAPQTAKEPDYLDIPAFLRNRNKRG
# B1: FtsZ (purified, WT), P0A9A6 CTV KQAD (380-383) replaced by NRNKRG (protein)
# chain: MFEPMELTNDAVIKVIGVGGGGGNAVEHMVRERIEGVEFFAVNTDAQALRKTAVGQTIQIGSGITKGLGAGANPEVGRNAADEDRDALRAALEGADMVFIAAGMGGGTGTGAAPVVAEVAKDLGILTVAVVTKPFNFEGKKRMAFAEQGITELSKHVDSLITIPNDKLLKVLGRGISLLDAFGAANDVLKGAVQGIAELITRPGLMNVDFADVRTVMSEMGYAMMGSGVASGEDRAEEAAEMAISSPLLEDIDLSGARGVLVNITAGFDLRLDEFETVGNTIRAFASDNATVVIGTSLDPDMNDELRVTVVATGIGMDKRPEITLVTNKQVQQPVMDRYQQHGMAPLTQEQKPVAKVVNDNAPQTAKEPDYLDIPAFLRNRNKRG
# Tests used:
# ZapD (purified), P36680 = target: T1, ZapD (purified), P36680; test: co-sedimentation assay, SDS-PAGE quantification; details: chain shown with the change, 50 mM K-MOPS pH 6.5, 50 mM KCl, 2.5 mM MgCl2, 1 mM GTP, 3 µM BSA, read off a plot
# [1] = target: T2, FtsZ(NRNKRG) (purified), P0A9A6; test: sedimentation (co-pelleting) assay, SDS-PAGE quantification; details: chain shown with the change, 50 mM K-MOPS pH 6.5, 50 mM KCl, 2.5 mM MgCl2, 1 mM GTP, 3 µM BSA, read off a plot
binder,measurement,setting,value
B1,response (% ZapD in pellet),"ZapD (purified), P36680; 5 µM FtsZ with ZapD at 1:0.2, parent: est. 62",17
same,response (% ZapD in pellet),"ZapD (purified), P36680; 5 µM FtsZ with ZapD at 1:1, parent: est. 55",23
same,response (% FtsZ in pellet),"[1]; 5 µM FtsZ with ZapD at 1:0.2, parent: est. 44",34
same,response (% FtsZ in pellet),"[1]; 5 µM FtsZ with ZapD at 1:1, parent: est. 73",36
same,response (% FtsZ in pellet),"[1]; 5 µM FtsZ, no ZapD, parent: est. 26",31
